Measurements from patent US20250243282A1 (TRUEBINDING, published 2025).

Legend:
[1] = molecular target: T1, human Gal3 protein (recombinant human Galectin-3) (human, UniProt P17931 2-250); test: BLI binding activity, long-term stability 5°C, 3 months
T1 construct: also called hGal3; hGAL3

[2] = molecular target: T1, human Gal3 protein (recombinant human …); test: ELISA blocking assay (blocked partner not stated), in-use stability bag #1, 0 h; Bag #1, 0 h
[3] = molecular target: T1, human Gal3 protein (recombinant human …); test: ELISA biological activity, long-term stability 5°C, 0 months; 5° C., 0 months
[4] = molecular target: T1, human Gal3 protein (recombinant human …); test: ELISA blocking assay (blocked partner not stated), in-use stability bag #2, 0.5 h
[5] = molecular target: T1, human Gal3 protein (recombinant human …); test: BLI binding activity, accelerated stability 25°C/60% RH, 0 months
[6] = molecular target: T1, human Gal3 protein (recombinant human …); test: BLI binding activity, accelerated stability 25°C/60% RH, 3 months
[7] = molecular target: T1, human Gal3 protein (recombinant human …); test: ELISA blocking assay (blocked partner not stated), in-use stability bag #1, 0.5 h
[8] = molecular target: T1, human Gal3 protein (recombinant human …); test: ELISA blocking assay (blocked partner not stated), in-use stability bag #1, 4 h
[9] = molecular target: T2, Recombinant human Gal3 (rhGal3) (TrueBinding, #QC200361) (human, UniProt P17931 2-250); test: cell-based or functional assay
[10] = molecular target: T1, human Gal3 protein (recombinant human …); test: ELISA biological activity, accelerated stability 25°C/60% RH, 3 months
[11] = molecular target: T1, human Gal3 protein (recombinant human …); test: ELISA blocking assay (blocked partner not stated), in-use stability bag #1, 2 h
[12] = molecular target: T1, human Gal3 protein (recombinant human …); test: ELISA biological activity, long-term stability 5°C, 1 month
[13] = molecular target: T1, human Gal3 protein (recombinant human …); test: BLI binding activity, accelerated stability 25°C/60% RH, 1 month
[14] = molecular target: T1, human Gal3 protein (recombinant human …); test: ELISA blocking assay (blocked partner not stated), in-use stability bag #2, 4 h
[15] = molecular target: T1, human Gal3 protein (recombinant human …); test: BLI binding activity, long-term stability 5°C, 0 months
[16] = molecular target: T1, human Gal3 protein (recombinant human …); test: ELISA blocking assay (blocked partner not stated), in-use stability bag #2, 2 h
[17] = molecular target: T1, human Gal3 protein (recombinant human …); test: ELISA blocking assay (blocked partner not stated), in-use stability bag #1, 1 h
[18] = molecular target: T1, human Gal3 protein (recombinant human …); test: BLI binding activity, long-term stability 5°C, 1 month
[19] = molecular target: T1, human Gal3 protein (recombinant human …); test: ELISA blocking assay (blocked partner not stated), in-use stability bag #2, 1 h
[20] = molecular target: T1, human Gal3 protein (recombinant human …); test: ELISA blocking assay (blocked partner not stated), in-use stability bag #2, 0 h
[21] = molecular target: T1, human Gal3 protein (recombinant human …); test: method not stated (FIG. 20)
mouse Gal3 = mouse Gal3 (mouse, UniProt P16110 2-264); test: method not stated (FIG. 20)
Sequence of mouse Gal3 (P16110 2-264 limits assumed): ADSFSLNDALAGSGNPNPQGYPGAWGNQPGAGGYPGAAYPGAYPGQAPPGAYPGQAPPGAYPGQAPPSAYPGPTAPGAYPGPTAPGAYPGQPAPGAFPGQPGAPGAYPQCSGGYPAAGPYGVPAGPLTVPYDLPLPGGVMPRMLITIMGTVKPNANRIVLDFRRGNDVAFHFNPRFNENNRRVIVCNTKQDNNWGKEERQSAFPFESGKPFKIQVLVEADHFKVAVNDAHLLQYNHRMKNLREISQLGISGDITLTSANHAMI

[22] = molecular target: T1, human Gal3 protein (recombinant human …); test: ELISA biological activity, accelerated stability 25°C/60% RH, 1 month
[23] = molecular target: T2, Recombinant human Gal3 (rhGal3) …; test: cell-based or functional assay; remark: listed apart in the source
[24] = molecular target: T1, human Gal3 protein (recombinant human …); test: ELISA biological activity, long-term stability 5°C, 3 months
[25] = molecular target: T1, human Gal3 protein (recombinant human …); test: ELISA biological activity, accelerated stability 25°C/60% RH, 0 months

T1 sequence (P17931 2-250 limits assumed): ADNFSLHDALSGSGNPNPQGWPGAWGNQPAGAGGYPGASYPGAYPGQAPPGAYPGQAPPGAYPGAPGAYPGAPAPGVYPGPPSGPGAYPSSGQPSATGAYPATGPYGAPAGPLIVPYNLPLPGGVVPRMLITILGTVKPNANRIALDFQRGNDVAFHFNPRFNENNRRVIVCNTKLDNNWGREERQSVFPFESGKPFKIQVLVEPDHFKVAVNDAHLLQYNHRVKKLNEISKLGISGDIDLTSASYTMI

B1: TB006 (antibody, human IgG4 S228P, kappa, V domains shown)
VH: QVQLVQSGAEVKKPGASVKVSCKASGYSFTNYYMHWVRQAPGQRLEWMGWIYPGSGNTNYNEKFQGRVTITADTSASTAYMELSSLRSEDTAVYYCSTAPGGFDVWGQGTTVTVSS
VL: DIVMTQTPLSLSVTPGQPASISCKSSKSLLHSDGITYLYWYLQKPGQSPQLLIYRMSNLASGVPDRFSGSGSGTDFTLKISRVEAEDVGVYYCAQMLEFPLTFGQGTKLEIKR
notes: also called 4A11.H3L1; IMT006a
- Kd [1]: 3 nM
- IC50 [2]: 1.01 µg/mL
- IC50 [3]: 2.5 µg/mL
- IC50 [4]: 1.66 µg/mL
- Kd [5]: 3 nM
- Kd [6]: 3.1 nM
- IC50 [7]: 1.34 µg/mL
- IC50 [8]: 1.41 µg/mL
- IC50 of blocking IL-6 secretion by HL60-derived neutrophils (rhGal3 + LPS) [9]: 33.7 nM
- IC50 of blocking TNFα secretion by HL60-derived neutrophils (rhGal3 + LPS) [9]: 11.1 nM
- IC50 [10]: 1.5 µg/mL
- IC50 [11]: 1.71 µg/mL
- IC50 [12]: 1.8 µg/mL
- Kd [13]: 2.5 nM
- IC50 [14]: 1.35 µg/mL
- Kd [15]: 3 nM
- IC50 [16]: 1.67 µg/mL
- IC50 [17]: 1.43 µg/mL
- Kd [18]: 2.5 nM
- IC50 [19]: 1.63 µg/mL
- IC50 [20]: 1.05 µg/mL
- Kd [21]: 8.9 nM
- Kd (mouse Gal3): 40000 nM
- IC50 [22]: 1.8 µg/mL
- % inhibition of CD62L shedding [23]: 76.1%
- IC50 [24]: 1.5 µg/mL
- IC50 [25]: 2.5 µg/mL
